One substance from patent US10487114 can be followed below.

The test system of the series is T1, pT231-Pro tau peptide KVAVVR-(pT231)-(Pro)-PKSPS.
T1 sequence: KVAVVRTPPKSPS

As to PP2A, the “dephosphorylation of pT231-tau peptide, read with the conformation-specific antibodies” value is on record as “Trans, but not cis, pT231-tau peptide was readily dephosphorylated by PP2A in a time-dependent manner”.
